The results in this text go back to patent publication US20210024646A1 (published 2021).

Values joined by “and” are separate entries in the source; they are usually repeats but may differ in a detail not shown here. Equal values may be shown once. Read-outs that look alike come from different tables or passages of the source.

Experiment [1] has as its target T1, extracellular domain of human CD73 protein (CD73-ECD), C-terminus polyhistidine-tagged (UniProt P21589 27-547).
T1 chain: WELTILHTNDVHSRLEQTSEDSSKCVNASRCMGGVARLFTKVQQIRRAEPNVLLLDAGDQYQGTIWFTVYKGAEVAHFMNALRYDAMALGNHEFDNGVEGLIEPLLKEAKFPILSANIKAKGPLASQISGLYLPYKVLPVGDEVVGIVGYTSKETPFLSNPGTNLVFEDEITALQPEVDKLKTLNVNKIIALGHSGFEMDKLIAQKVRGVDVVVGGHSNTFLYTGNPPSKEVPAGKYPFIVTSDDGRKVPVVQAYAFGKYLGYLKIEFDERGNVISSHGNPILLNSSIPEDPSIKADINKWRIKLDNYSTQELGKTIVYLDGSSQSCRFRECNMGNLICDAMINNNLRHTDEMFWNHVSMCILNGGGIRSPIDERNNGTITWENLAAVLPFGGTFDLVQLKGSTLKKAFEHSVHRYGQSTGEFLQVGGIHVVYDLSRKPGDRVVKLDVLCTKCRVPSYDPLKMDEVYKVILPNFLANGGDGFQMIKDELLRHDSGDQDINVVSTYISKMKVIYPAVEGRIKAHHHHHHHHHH
Put plainly: ELISA.

The target of experiment [2] is T1, extracellular domain of human CD73 …. Nature of the experiment: ELISA.
For experiment [3], the target named is T2, CD73 on the surface of human tumor cells (human, UniProt P21589 27-549).
T2 chain: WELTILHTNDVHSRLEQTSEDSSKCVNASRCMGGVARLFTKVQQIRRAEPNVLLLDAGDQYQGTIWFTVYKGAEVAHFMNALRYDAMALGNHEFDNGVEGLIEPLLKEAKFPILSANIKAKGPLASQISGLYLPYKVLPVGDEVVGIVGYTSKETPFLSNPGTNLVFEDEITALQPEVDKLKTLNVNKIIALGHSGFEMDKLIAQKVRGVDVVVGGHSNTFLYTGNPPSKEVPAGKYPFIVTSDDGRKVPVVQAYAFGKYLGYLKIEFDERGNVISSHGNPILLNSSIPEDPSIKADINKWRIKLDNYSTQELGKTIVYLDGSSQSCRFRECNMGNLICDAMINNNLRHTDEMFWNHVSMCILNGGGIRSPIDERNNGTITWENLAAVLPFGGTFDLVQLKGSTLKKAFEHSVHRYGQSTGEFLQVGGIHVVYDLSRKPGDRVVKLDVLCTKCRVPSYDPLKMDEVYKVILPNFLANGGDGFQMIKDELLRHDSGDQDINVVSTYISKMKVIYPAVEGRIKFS
Nature of the experiment: FACS; NCI-H1299 cells, left table.

Experiment [4] deals with T2, CD73 on the surface of human tumor cells. Nature of the experiment: FACS; NCI-H1299 cells, right table.
In experiment [5] the target is T1, extracellular domain of human CD73 …. Put plainly: enzyme inhibition; left table.
For experiment [6], the target named is T3, Carbon-terminal polyhistidine-labeled recombinant cynomolgus monkey CD73 enzyme (cynomolgus monkey, UniProt A0A2K5V5U7 1-547).
T3 chain: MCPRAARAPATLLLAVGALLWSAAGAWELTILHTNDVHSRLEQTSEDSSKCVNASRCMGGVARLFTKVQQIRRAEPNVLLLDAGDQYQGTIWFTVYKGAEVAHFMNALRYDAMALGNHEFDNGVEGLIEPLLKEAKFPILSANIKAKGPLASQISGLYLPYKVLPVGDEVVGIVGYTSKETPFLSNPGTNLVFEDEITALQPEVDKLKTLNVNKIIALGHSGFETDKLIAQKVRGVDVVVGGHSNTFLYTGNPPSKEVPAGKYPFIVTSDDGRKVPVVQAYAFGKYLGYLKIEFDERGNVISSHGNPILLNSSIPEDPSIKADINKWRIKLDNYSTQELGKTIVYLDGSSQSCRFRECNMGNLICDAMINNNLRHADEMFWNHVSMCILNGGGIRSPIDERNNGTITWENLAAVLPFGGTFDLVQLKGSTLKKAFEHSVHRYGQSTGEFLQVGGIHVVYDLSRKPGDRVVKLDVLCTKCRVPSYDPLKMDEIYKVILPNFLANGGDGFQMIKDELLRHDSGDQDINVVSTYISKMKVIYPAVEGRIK
Put plainly: enzyme inhibition; left table.

In experiment [7] the target is T1, extracellular domain of human CD73 …. Nature of the experiment: enzyme inhibition; right table.
Experiment [8] concerns the target T3, Carbon-terminal polyhistidine-labeled …. Nature of the experiment: enzyme inhibition; right table.
Experiment [9] addresses T2, CD73 on the surface of human tumor cells. Put plainly: FACS; MDA-MB-231 cells, left table.
For experiment [10] the target is unchanged. Nature of the experiment: FACS; MDA-MB-231 cells, right table.

B1: mAb002c-VH-NA (antibody, V domains shown)
VH: QVQLQQPGAELVKPGASVRLSCKASGYTLTSYWMHWVKKRPGQGLEWIGEINPSNARSNYNEKFKSKATLTVDRSSSTVYMQLGSLTSEDSAVYYCARRGVSGNYFDYWGQGTTLTVSS
VL: DIKMTQSPSSMYASLGERVTMTCKASQDINTYLSWFQQKPGKSPKTLIYRSNILVDGVPSRFSGSRSGQDYYLTITSLEYEDMGIYYCLQYDEFPYTFGGGTKLELK
Regarding B1, the response in experiment [1] was half-maximal at 0.051 nM (EC50).

B2: mAb002c-VK-SG (antibody, V domains shown)
VH: QVQLQQPGAELVKPGASVRLSCKASGYTLTSYWMHWVKKRPGQGLEWIGEINPSNGRSNYNEKFKSKATLTVDRSSSTVYMQLGSLTSEDSAVYYCARRGVSGNYFDYWGQGTTLTVSS
VL: DIKMTQSPSSMYASLGERVTMTCKASQDINTYLSWFQQKPGKSPKTLIYRSNILVSGVPSRFSGSRSGQDYYLTITSLEYEDMGIYYCLQYDEFPYTFGGGTKLELK
Take B2: in experiment [1], the EC50 was found to be 0.063 nM.

B3: mAb002c-VH-QG (antibody, V domains shown)
VH: QVQLQQPGAELVKPGASVRLSCKASGYTLTSYWMHWVKKRPGQGLEWIGEINPSQGRSNYNEKFKSKATLTVDRSSSTVYMQLGSLTSEDSAVYYCARRGVSGNYFDYWGQGTTLTVSS
VL: DIKMTQSPSSMYASLGERVTMTCKASQDINTYLSWFQQKPGKSPKTLIYRSNILVDGVPSRFSGSRSGQDYYLTITSLEYEDMGIYYCLQYDEFPYTFGGGTKLELK
For the molecule B3, the EC50 in [1] was found to be 0.05 nM.

B4: mAb001c-VK-SGS (antibody, V domains shown)
VH: QVQLQQSGPELVKPGASVRISCKTSGYTFTNYYIYWVKQRPGQGLEWIGWIYPGNLNIKYNEKFKGKSTLTADKSSSTAFMQLSSLTSEDSAVYFCARDDNYAWFAYWGQGTLVTVSS
VL: DIVMTQSHKFMSTSIGDRVSITCKASQDVSTAVAWYQQKPGQSPKLLIYWTNTRHTGVPDRFTGSGSGTEHTLTISSVQAEDLALYYCQQHYSTPFTFGSGTTLEIK
Take B4: the EC50 was 0.099 nM and 0.054 nM in [2]; 0.073 nM in experiment [1]; 1.62 nM in [3]; 1.65 nM in [4].

B5: Hu001c-14 (antibody, V domains shown)
VH: QVQLVQSGAEVKKPGASVKVSCKTSGYTFTNYYIYWVRQAPGQRLEWMGWIYPGNLNIKYNEKFKGRVTITADTSASTAYMELSSLRSEDTAVYYCARDDNYAWFAYWGQGTLVTVSS
VL: DIQMTQSPSSLSASVGDRVTITCKASQDVSTAVAWYQQKPGKAPKLLIYWTNTRHTGVPSRFSGSGSGTDHTLTISSLQPEDFATYYCQQHYSTPFTFGQGTKLEIK
As for B5, the EC50 in experiment [2] is 0.108 nM; in experiment [3], 1.33 nM; in experiment [4] it was 1.16 nM; in experiment [9] it was 0.449 nM; in experiment [10] it was 0.626 nM. For the same molecule, the IC50 in [5] stood at 0.06 nM; in experiment [6], 0.11 nM; in experiment [7], 0.06 nM; in experiment [8] it was 0.1 nM.

B6: Hu001c-23 (antibody, V domains shown)
VH: QVQLVQSGAEVKKPGASVKVSCKASGYTFTNYYIYWVKQRPGQGLEWIGWIYPGNLNIKYNEKFKGRVTITADKSASTAYMELSSLRSEDTAVYYCARDDNYAWFAYWGQGTLVTVSS
VL: DIQMTQSPSSLSASVGDRVTITCKASQDVSTAVAWYQQKPGKAPKLLIYWTNTRHTGVPSRFSGSGSGTDHTLTISSLQPEDFATYYCQQHYSTPFTFGQGTKLEIK
For the molecule B6, the EC50 in experiment [2] turned out to be 0.033 nM; in [3], 1.3 nM; in [4] it was 1.48 nM; in [9], 0.4 nM; in [10], 0.593 nM. Also, the IC50 was determined as 0.03 nM in [5], 0.07 nM in experiment [6], 0.04 nM in experiment [7] and 0.07 nM in experiment [8].

B7: Hu001c-32 (antibody, V domains shown)
VH: QVQLVQSGAEVKKPGASVKVSCKASGYTFTNYYIYWVKQRPGQRLEWIGWIYPGNLNIKYNEKFKGRSTLTADKSASTAYMELSSLRSEDTAVYYCARDDNYAWFAYWGQGTLVTVSS
VL: DIQMTQSPSSLSASVGDRVTITCKASQDVSTAVAWYQQKPGKAPKLLIYWTNTRHTGVPSRFSGSGSGTDHTLTISSLQPEDFATYYCQQHYSTPFTFGQGTKLEIK
As to B7, the EC50 in experiment [2] stood at 0.107 nM; in [4] it was 1.62 nM; in [10], 0.608 nM. For the same molecule, the figures for the IC50 in [7] and in experiment [8] were 0.07 nM and 0.11 nM, respectively.

B8: Hu001c-30 (antibody, V domains shown)
VH: QVQLVQSGAEVKKPGASVKVSCKASGYTFTNYYIYWVKQRPGQRLEWIGWIYPGNLNIKYNEKFKGRSTLTADKSASTAYMELSSLRSEDTAVYYCARDDNYAWFAYWGQGTLVTVSS
VL: DIQMTQSPSSLSASVGDRVTITCKASQDVSTAVAWYQQKPGKAPKLLIYWTNTRHTGVPSRFSGSGSGTDFTLTISSLQPEDFATYYCQQHYSTPFTFGQGTKLEIK
In the case of B8, the results for the EC50 in experiment [2], in [4] and in [10] were 0.139 nM, 1.61 nM and 0.695 nM, respectively. Moreover, the half-maximal inhibitory concentration (IC50) in experiment [7] stood at 0.128 nM; in [8], 0.132 nM.
